The record followed here is patent US20170051068A1 (Janssen / Centocor, published 2017).

Residue numbers refer to the chain shown, from its start. Names and notes keep the numbering of the source.

To fix the notation:
B1: BCMB123 (antibody, human IgG4 S228P, lambda, F234A L235A, V domains shown)
VH: QLQLQESGPGLVKPSETLSLTCTVSGGSISSSSYFWGWIRQPPGKGLEWIGSIYYSGITYYNPSLKSRVTISVDTSKNQFSLKLSSVTAADTAVYYCARHDGAVAGLFDYWGQGTLVTVSS
VL: SYVLTQPPSVSVAPGQTARITCGGNNIGSKSVHWYQQPPGQAPVVVVYDDSDRPSGIPERFSGSNSGNTATLTISRVEAGDEAVYYCQVWDSSSDHVVFGGGTKLTVLG
notes: IgG4 S228P, L234A, L235A; also called BCBM123
B2: BCMB177 (antibody, human IgG4 S228P, lambda, F234A L235A, V domains shown)
VH: B1 VH with I58R, V104T
VL: B1 VL
notes: IgG4 S228P, L234A, L235A; also called BCBM177
B3: BC3B7 (BCMA×CD3 bispecific antibody, BCMB117 × CD3B219) (bispecific antibody, human IgG4 S228P, lambda, F234A L235A)
heavy 1: EVQLVESGGGLVQPGGSLRLSCAASGFTFNTYAMNWVRQAPGKGLEWVARIRSKYNNYATYYAASVKGRFTISRDDSKNSLYLQMNSLKTEDTAVYYCARHGNFGNSYVSWFAYWGQGTLVTVSSASTKGPSVFPLAPCSRSTSESTAALGCLVKDYFPEPVTVSWNSGALTSGVHTFPAVLQSSGLYSLSSVVTVPSSSLGTKTYTCNVDHKPSNTKVDKRVESKYGPPCPPCPAPEAAGGPSVFLFPPKPKDTLMISRTPEVTCVVVDVSQEDPEVQFNWYVDGVEVHNAKTKPREEQFNSTYRVVSVLTVLHQDWLNGKEYKCKVSNKGLPSSIEKTISKAKGQPREPQVYTLPPSQEEMTKNQVSLTCLVKGFYPSDIAVEWESNGQPENNYKTTPPVLDSDGSFLLYSKLTVDKSRWQEGNVFSCSVMHEALHNHYTQKSLSLSLGK
light 1: QTVVTQEPSLTVSPGGTVTLTCRSSTGAVTTSNYANWVQQKPGQAPRGLIGGTNKRAPGTPARFSGSLLGGKAALTLSGVQPEDEAEYYCALWYSNLWVFGGGTKLTVLGQPKAAPSVTLFPPSSEELQANKATLVCLISDFYPGAVTVAWKADSSPVKAGVETTTPSKQSNNKYAASSYLSLTPEQWKSHRSYSCQVTHEGSTVEKTVAPTECS
heavy 2: not shown
light 2: SYVLTQPPSVSVAPGQTARITCGGNNIGSKSVHWYQQPPGQAPVVVVYDDSDRPSGIPERFSGSNSGNTATLTISRVEAGDEAVYYCQVWDSSSDHVVFGGGTKLTVLGQPKAAPSVTLFPPSSEELQANKATLVCLISDFYPGAVTVAWKADSSPVKAGVETTTPSKQSNNKYAASSYLSLTPEQWKSHRSYSCQVTHEGSTVEKTVAPTECS
notes: also called BC3BY; B117 × B219
B4: BC3B12 (BCMA×CD3 bispecific antibody, BCMB177 × CD3B219) (bispecific antibody, human IgG4 S228P, lambda, F234A L235A)
heavy 1: B3 heavy 1
light 1: B3 light 1
heavy 2: not shown
light 2: B3 light 2
notes: IgG4 made by Fab arm exchange; also called B177 × B219
B5: BC3B11 (BCMA×CD3 bispecific antibody, BCMB176 × CD3B219) (bispecific antibody, human IgG4 S228P, lambda, F234A L235A)
heavy 1: B3 heavy 1
light 1: B3 light 1
heavy 2: not shown
light 2: B3 light 2
notes: IgG4 made by Fab arm exchange; also called B176 × B219
B6: BCMB129 (antibody, human IgG4 S228P, lambda, F234A L235A, V domains shown)
VH: B1 VH with S32G, I58S
VL: B1 VL
notes: IgG4 S228P, L234A, L235A; also called BCBM129
B7: BCMB176 (antibody, human IgG4 S228P, lambda, F234A L235A, V domains shown)
VH: B1 VH with V104T
VL: B1 VL
notes: IgG4 S228P, L234A, L235A; also called BCBM176
B8: BCMB128 (antibody, human IgG4 S228P, lambda, F234A L235A, V domains shown)
VH: B1 VH with S32G, V104T
VL: B1 VL
notes: IgG4 S228P, L234A, L235A; also called BCBM128
B9: BC3B8 (BCMA×CD3 bispecific antibody, BCMB123 × CD3B219) (bispecific antibody, human IgG4 S228P, lambda, F234A L235A)
heavy 1: B3 heavy 1
light 1: B3 light 1
heavy 2: not shown
light 2: B3 light 2
notes: IgG4 made by Fab arm exchange; also called B123 × B219
B10: BC3B10 (BCMA×CD3 bispecific antibody, BCMB129 × CD3B219) (bispecific antibody, human IgG4 S228P, lambda, F234A L235A)
heavy 1: B3 heavy 1
light 1: B3 light 1
heavy 2: not shown
light 2: B3 light 2
notes: IgG4 made by Fab arm exchange; also called B129 × B219

One experiment concerns the target T1, monomeric human BCMA (human, UniProt Q02223 1-54, limits assumed).
T1 construct: also called monomeric BCMA antigen
T1 sequence: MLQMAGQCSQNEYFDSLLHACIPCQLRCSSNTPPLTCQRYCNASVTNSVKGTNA
In words: SPR. (Surface plasmon resonance follows binding to a sensor surface in real time, without labels.)
In the case of B1, the “fold weaker affinity than BCMB69” value was 3 to 15 fold.
On the same count and under the same terms, the figure for B2 is 3 to 15 fold.

For the next experiment, the target named is T2, Fc-fusion cyno BCMA (in-house; Cat# BCMW6.001) (cyno, UniProt Q02223 1-54 (human entry)).
T2 construct: also called Fc-BCMA Cy; cyno Fc-BCMA; not shown: Fc part
Kind of experiment: SPR, cyno Fc-BCMA.
For the molecule B3, the “fold tighter affinity than BCMB72” value came out at 2 fold.

The target in a further experiment is T3, Recombinant human BCMA-Fc fusion protein (R&D Systems catalog #193-BC-050) (human, UniProt Q02223 1-54).
T3 construct: also called hBCMA-Fc; Fc-BCMA Hu; not shown: Fc part of the bought fusion protein
T3 sequence: T1 sequence
In words: SPR, human Fc-BCMA.
As to B4, the “fold weaker affinity than BCMB72” value lay within 2 to 3 fold.
For B5, the “fold weaker affinity than BCMB72” value lay within 2 to 3 fold.

For another experiment, the target named is T1, monomeric human BCMA. Kind of experiment: SPR, monomeric human BCMA.
Molecule B1 showed a Kd of 5.12 nM, a koff of 0.011 s⁻¹ and a kon of 2.14e+06 M⁻¹ s⁻¹.
Turning to B6, binding was put at a Kd of 5.47 nM, the koff is 0.00843 s⁻¹ and the kon was determined as 1.54e+06 M⁻¹ s⁻¹.
B7 gave a Kd of 7.18 nM, a koff of 0.0288 s⁻¹ and a kon of 4e+06 M⁻¹ s⁻¹.
As to B2, the Kd was found to be 20.2 nM, the koff is 0.0566 s⁻¹ and the kon was 2.8e+06 M⁻¹ s⁻¹.
B8 yielded a Kd of 2.07 nM, a koff of 0.0087 s⁻¹ and a kon of 4.2e+06 M⁻¹ s⁻¹.

In the next experiment the target is T3, Recombinant human BCMA-Fc fusion …. Kind of experiment: SPR, Fc-BCMA, two-state model, step 2.
Turning to B9, the koff2 is 0.000594 s⁻¹ and the kon2 was 0.00313 s⁻¹.
As to B4, the koff2 came to 0.000557 s⁻¹ and the kon2 is 0.00129 s⁻¹.
The like results for B10 were, in that order, 0.000531 s⁻¹ and 0.00453 s⁻¹.
In the same order, the values of B5 are 0.000689 s⁻¹ and 0.00252 s⁻¹.

Another experiment has as its target T2, Fc-fusion cyno BCMA (in-house; Cat# …). In words: SPR, Fc-BCMA, two-state model, step 2.
B3: the koff2 stood at 0.000415 s⁻¹ and the kon2 is 0.0015 s⁻¹.
In turn, B9 gave a koff2 of 0.000326 s⁻¹ and a kon2 of 0.00194 s⁻¹.
In turn, B4 gave a koff2 of 0.000337 s⁻¹ and a kon2 of 0.00146 s⁻¹.
B10: the koff2 came out at 0.000359 s⁻¹ and the kon2 was found to be 0.00165 s⁻¹.
In the same order, the values of B5 are 0.000395 s⁻¹ and 0.00147 s⁻¹.

A further experiment has as its target T3, Recombinant human BCMA-Fc fusion …. In words: SPR, Fc-BCMA, two-state model, first complex.
With B9, the KD1 was 0.91 nM.
On the same count and under the same terms, the figure for B4 is 0.72 nM; for B10 it is 1.5 nM; for B5 it is 0.58 nM.

The target of the next experiment is T2, Fc-fusion cyno BCMA (in-house; Cat# …). In words: SPR, Fc-BCMA, two-state model, first complex.
In turn, B3 returned a KD1 of 3.04 nM.
The same measure, in the same setting: the figure for B9 is 6.77 nM; for B4 it is 5.65 nM.
The same measure, in the same setting: to B10 belongs 6.84 nM.
The same measure, in the same setting: the figure for B5 is 3.56 nM.

The next experiment has as its target T3, Recombinant human BCMA-Fc fusion …. In words: SPR, Fc-BCMA, two-state model, step 1 (kon1); first step (kon1).
For the molecule B9, the kon is 1.35e+06 M⁻¹ s⁻¹.
Regarding B4, the kon was 1.78e+06 M⁻¹ s⁻¹.
Still for that read-out and setting: to B10 belongs 1.02e+06 M⁻¹ s⁻¹; to B5, 2.26e+06 M⁻¹ s⁻¹.

The next experiment has as its target T2, Fc-fusion cyno BCMA (in-house; Cat# …). The experiment is described as above.
In turn, B3 yielded a kon of 1.38e+06 M⁻¹ s⁻¹.
As to B9, the kon came to 1.09e+06 M⁻¹ s⁻¹.
Still for that read-out and setting: the figure for B4 is 1.48e+06 M⁻¹ s⁻¹; for B10 it is 930000 M⁻¹ s⁻¹; for B5 it is 1.93e+06 M⁻¹ s⁻¹.

In the next experiment the target is T3, Recombinant human BCMA-Fc fusion …. In words: SPR, Fc-BCMA, two-state model, step 1 (koff1); first step (koff1).
For the molecule B9, the koff came out at 0.00123 s⁻¹.
Same read-out and setting: to B4 belongs 0.00129 s⁻¹.
For the molecule B10, the koff was 0.00155 s⁻¹.
On the same count and under the same terms, the figure for B5 is 0.00132 s⁻¹.

The next experiment deals with T2, Fc-fusion cyno BCMA (in-house; Cat# …). The experiment is described as above.
On to B3, for which the koff is 0.00417 s⁻¹.
On the same count and under the same terms, to B9 belongs 0.00734 s⁻¹; to B4, 0.00831 s⁻¹; to B10, 0.00636 s⁻¹.
In turn, B5 came in with a koff of 0.00683 s⁻¹.

A further experiment concerns the target T3, Recombinant human BCMA-Fc fusion …. Kind of experiment: SPR, Fc-BCMA, two-state model, Final KD; Final complex KD, two-state model.
B9: the Kd was found to be 0.14 nM.
Take B4: the Kd came out at 0.22 nM.
Still for that read-out and setting: the figure for B10 is 0.16 nM; for B5 it is 0.12 nM.

Another experiment has as its target T2, Fc-fusion cyno BCMA (in-house; Cat# …). Described as above.
Molecule B3 displayed a Kd of 0.65 nM.
The same measure, in the same setting: the figure for B9 is 0.97 nM; for B4 it is 1.06 nM.
For the molecule B10, the affinity, expressed as Kd, was 1.22 nM.
The same measure, in the same setting: to B5 belongs 0.75 nM.

As usually defined, the Kd is the equilibrium constant for the complex coming apart. As a reminder, the koff is the first-order rate constant of dissociation. A word on the kon: it is a measure of how fast the partners come together.
